Measurements taken from article PMC12218292 (Nature Communications, 2025).

T1: Rad51 (S. cerevisiae), P25454
T1 chain: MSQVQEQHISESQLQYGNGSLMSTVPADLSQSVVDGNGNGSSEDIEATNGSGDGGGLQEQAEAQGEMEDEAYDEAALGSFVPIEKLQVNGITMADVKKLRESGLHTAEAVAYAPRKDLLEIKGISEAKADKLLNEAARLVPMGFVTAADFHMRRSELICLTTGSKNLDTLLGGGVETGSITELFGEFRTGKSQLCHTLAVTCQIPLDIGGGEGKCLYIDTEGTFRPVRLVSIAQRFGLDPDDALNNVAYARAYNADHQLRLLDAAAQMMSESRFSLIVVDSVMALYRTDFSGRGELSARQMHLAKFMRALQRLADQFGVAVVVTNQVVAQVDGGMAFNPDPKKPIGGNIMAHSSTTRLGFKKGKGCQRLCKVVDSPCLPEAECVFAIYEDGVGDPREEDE


target: Rad51 (in yeast cells) (UniProt P25454); test: co-immunoprecipitation (co-IP); conditions: read off a plot

Sequence of Rad52-FLAG (from UniProt P06778) V350 (P06778 whole entry, change not shown): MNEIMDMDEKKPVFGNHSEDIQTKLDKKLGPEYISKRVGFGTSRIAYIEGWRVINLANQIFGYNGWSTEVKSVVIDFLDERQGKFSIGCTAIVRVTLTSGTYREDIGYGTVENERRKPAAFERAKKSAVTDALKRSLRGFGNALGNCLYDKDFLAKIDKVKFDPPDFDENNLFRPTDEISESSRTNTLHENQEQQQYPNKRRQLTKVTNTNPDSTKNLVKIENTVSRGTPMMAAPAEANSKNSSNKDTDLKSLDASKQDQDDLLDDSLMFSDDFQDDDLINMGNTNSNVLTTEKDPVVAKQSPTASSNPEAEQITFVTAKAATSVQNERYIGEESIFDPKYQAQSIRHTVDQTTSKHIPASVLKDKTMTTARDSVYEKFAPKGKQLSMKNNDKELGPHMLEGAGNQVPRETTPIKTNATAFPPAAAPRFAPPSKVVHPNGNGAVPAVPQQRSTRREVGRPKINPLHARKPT
Sequence of Rad52-FLAG (from UniProt P06778) T318 (P06778 whole entry, change not shown): as above
Sequence of Rad52-FLAG (from UniProt P06778) L363 (P06778 whole entry, change not shown): as above
Sequence of Rad52-FLAG (from UniProt P06778) V358E (P06778 whole entry, stated change not applied): as the sequence (P06778 whole entry, change not shown) above
Sequence of Rad52-FLAG (from UniProt P06778) A319 (P06778 whole entry, change not shown): as above
Sequence of Rad52-FLAG (from UniProt P06778) V317 (P06778 whole entry, change not shown): as above
Sequence of Rad52-FLAG (from UniProt P06778) S355 (P06778 whole entry, change not shown): as above
Sequence of Rad52-FLAG (from UniProt P06778) S374 (P06778 whole entry, change not shown): as above
Sequence of Rad52-FLAG (from UniProt P06778) P381 (P06778 whole entry, change not shown): as above
Sequence of Rad52-FLAG (from UniProt P06778) V325 (P06778 whole entry, change not shown): as above

Row | Molecule | other: interaction loss by coIP (%)
1 | Rad52-FLAG (from UniProt P06778) P381 | 79%
2 | Rad52-FLAG (from UniProt P06778) S374 | 33%
3 | Rad52-FLAG (from UniProt P06778) T318 | 97%
4 | Rad52-FLAG (from UniProt P06778) V317 | 80%
5 | Rad52-FLAG (from UniProt P06778) V325 | 89%

Further lines, results first:

Row | other: interaction loss by coIP (%) | Molecule
6 | 99% | Rad52-FLAG (from UniProt P06778) A319
7 | 27% | Rad52-FLAG (from UniProt P06778) L363
8 | 100% | Rad52-FLAG (from UniProt P06778) S355
9 | 49% | Rad52-FLAG (from UniProt P06778) V350
10 | 100% | Rad52-FLAG (from UniProt P06778) V358E

Target: T1, Rad51 (S. cerevisiae), P25454
Test: SEC-SAXS; Rad51 + Rad52 (295–408) 1:1; SWING beamline in SEC mode, Superdex 5/150 GL column; peak deconvolution; molecular weight from SAXS
Conditions: remark: other sources report otherwise

Row | stoichiometry N | Molecule
11 | 4 | Rad51 (natural protein, S. cerevisiae, UniProt P25454 1-400, looked up, Oligomeric alone in solution; also called full-length unlabeled Rad51) MSQVQEQHISESQLQYGNGSLMSTVPADLSQSVVDGNGNGSSEDIEATNGSGDGGGLQEQAEAQGEMEDEAYDEAALGSFVPIEKLQVNGITMADVKKLRESGLHTAEAVAYAPRKDLLEIKGISEAKADKLLNEAARLVPMGFVTAADFHMRRSELICLTTGSKNLDTLLGGGVETGSITELFGEFRTGKSQLCHTLAVTCQIPLDIGGGEGKCLYIDTEGTFRPVRLVSIAQRFGLDPDDALNNVAYARAYNADHQLRLLDAAAQMMSESRFSLIVVDSVMALYRTDFSGRGELSARQMHLAKFMRALQRLADQFGVAVVVTNQVVAQVDGGMAFNPDPKKPIGGNIMAHSSTTRLGFKKGKGCQRLCKVVDSPCLPEAECVFAIYEDGVGDPREEDE

target: T2, Rad52 (295–408) (S. cerevisiae, UniProt P06778 295-408, uniform 15N labelling); test: as above; conditions: both partners purified
T2 construct: numbered from the first AUG codon in RAD52 mRNA (protein of 471 residues); Cloned in pETM30; also called Rad52C-ter; Rad52-Cter; source: E. coli BL21(DE3), purified (GSH-sepharose, TEV cleavage, Ni Sepharose, PD10)
T2 sequence (P06778 295-408): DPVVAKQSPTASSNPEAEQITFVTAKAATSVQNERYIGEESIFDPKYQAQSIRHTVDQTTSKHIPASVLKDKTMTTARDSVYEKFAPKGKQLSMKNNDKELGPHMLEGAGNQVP

Row | stoichiometry N | Molecule
12 | 1 | Rad51 (natural protein, S. cerevisiae, UniProt P25454 1-400, looked up, Oligomeric alone in solution; also called full-length unlabeled Rad51) MSQVQEQHISESQLQYGNGSLMSTVPADLSQSVVDGNGNGSSEDIEATNGSGDGGGLQEQAEAQGEMEDEAYDEAALGSFVPIEKLQVNGITMADVKKLRESGLHTAEAVAYAPRKDLLEIKGISEAKADKLLNEAARLVPMGFVTAADFHMRRSELICLTTGSKNLDTLLGGGVETGSITELFGEFRTGKSQLCHTLAVTCQIPLDIGGGEGKCLYIDTEGTFRPVRLVSIAQRFGLDPDDALNNVAYARAYNADHQLRLLDAAAQMMSESRFSLIVVDSVMALYRTDFSGRGELSARQMHLAKFMRALQRLADQFGVAVVVTNQVVAQVDGGMAFNPDPKKPIGGNIMAHSSTTRLGFKKGKGCQRLCKVVDSPCLPEAECVFAIYEDGVGDPREEDE
